Results published in the supplement of paper PMC5998384.

Legend:
HeLa Kyoto [1] = assay: solubility in G1/S (NP-40 vs SDS abundance) (log2 ratio); higher = more soluble; conditions: cell cycle stage: G1/S
HeLa Kyoto [2] = assay: solubility change mitosis vs G1/S (difference of NP-40 vs SDS log2 ratios) (log2 ratio difference); higher = more soluble in mitosis
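Throughout, for solubility change mitosis vs G1/S (difference of NP-40 vs SDS log2 ratios): synchronized HeLa Kyoto cells (double thymidine block for G1/S, nocodazole release for mitosis), protein amounts in NP-40 versus SDS lysates quantified by mass spectrometry, three biological replicates.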
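Throughout, for solubility in G1/S (NP-40 vs SDS abundance): HeLa Kyoto cells arrested at G1/S by double thymidine block, proteins quantified by TMT10plex mass spectrometry in mild NP-40 versus SDS extracts, three biological replicates.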

| Substance | solubility in G1/S (log2) (HeLa Kyoto [1]) | solubility change mitosis (log2) (HeLa Kyoto [2]) |
| --- | --- | --- |
| MNPQQQRMAAIGTDKELSDLLDFSAMFSPPVNSGKTRPTTLGSSQFSGSGIDERGGTTSWGTSGQPSPSYDSSRGFTDSPHYSDHLNDSRLGAHEGLSPTPFMNSNLMGKTSERGSFSLYSRDTGLPGCQSSLLRQDLGLGSPAQLSSSGKPGTAYYSFSATSSRRRPLHDSAALDPLQAKKVRKVPPGLPSSVYAPSPNSDDFNRESPSYPSPKPPTSMFASTFFMQDGTHNSSDLWSSSNGMSQPGFGGILGTSTSHMSQSSSYGNLHSHDRLSYPPHSVSPTDINTSLPPMSSFHRGSTSSSPYVAASHTPPINGSDSILGTRGNAAGSSQTGDALGKALASIYSPDHTSSSFPSNPSTPVGSPSPLTGTSQWPRPGGQAPSSPSYENSLHSLQSRMEDRLDRLDDAIHVLRNHAVGPSTSLPAGHSDIHSLLGPSHNAPIGSLNSNYGGSSLVASSRSASMVGTHREDSVSLNGNHSVLSSTVTTSSTDLNHKTQENYRGGLQSQSGTVVTTEIKTENKEKDENLHEPPSSDDMKSDDESSQKDIKVSSRGRTSSTNEDEDLNPEQKIEREKERRMANNARERLRVRDINEAFKELGRMCQLHLKSEKPQTKLLILHQAVAVILSLEQQVRERNLNPKAACLKRREEEKVSAVSAEPPTTLPGTHPGLSETTNPMGHM [TCF12] | 0.156 | -0.221 |
| MAELGEADEAELQRLVAAEQQKAQFTAQVHHFMELCWDKCVEKPGNRLDSRTENCLSSCVDRFIDTTLAITSRFAQIVQKGGQ [TIMM8B] | -0.938 | 0.734 |
| SZT2 | -0.476 | 0.317 |
| MSNGYSTDENFRYLISCFRARVKMYIQVEPVLDYLTFLPAEVKEQIQRTVATSGNMQAVELLLSTLEKGVWHLGWTREFVEALRRTGSPLAARYMNPELTDLPSPSFENAHDEYLQLLNLLQPTLVDKLLVRDVLDKCMEEELLTIEDRNRIAAAENNGNESGVRELLKRIVQKENWFSAFLNVLRQTGNNELVQELTGSDCSESNAEIENLSQVDGPQVEEQLLSTTVQPNLEKEVWGMENNSSESSFADSSVVSESDTSLAEGSVSCLDESLGHNSNMGSDSGTMGSDSDEENVAARASPEPELQLRPYQMEVAQPALEGKNIIICLPTGSGKTRVAVYIAKDHLDKKKKASEPGKVIVLVNKVLLVEQLFRKEFQPFLKKWYRVIGLSGDTQLKISFPEVVKSCDIIISTAQILENSLLNLENGEDAGVQLSDFSLIIIDECHHTNKEAVYNNIMRHYLMQKLKNNRLKKENKPVIPLPQILGLTASPGVGGATKQAKAEEHILKLCANLDAFTIKTVKENLDQLKNQIQEPCKKFAIADATREDPFKEKLLEIMTRIQTYCQMSPMSDFGTQPYEQWAIQMEKKAAKEGNRKERVCAEHLRKYNEALQINDTIRMIDAYTHLETFYNEEKDKKFAVIEDDSDEGGDDEYCDGDEDEDDLKKPLKLDETDRFLMTLFFENNKMLKRLAENPEYENEKLTKLRNTIMEQYTRTEESARGIIFTKTRQSAYALSQWITENEKFAEVGVKAHHLIGAGHSSEFKPMTQNEQKEVISKFRTGKINLLIATTVAEEGLDIKECNIVIRYGLVTNEIAMVQARGRARADESTYVLVAHSGSGVIEHETVNDFREKMMYKAIHCVQNMKPEEYAHKILELQMQSIMEKKMKTKRNIAKHYKNNPSLITFLCKNCSVLACSGEDIHVIEKMHHVNMTPEFKELYIVRENKALQKKCADYQINGEIICKCGQAWGTMMVHKGLDLPCLKIRNFVVVFKNNSTKKQYKKWVELPITFPNLDYSECCLFSDED [IFIH1] | -0.109 | -0.0235 |
| MGNTTTKFRKALINGDENLACQIYENNPQLKESLDPNTSYGEPYQHNTPLHYAARHGMNKILGTFLGRDGNPNKRNVHNETSMHLLCMGPQIMISEGALHPRLARPTEDDFRRADCLQMILKWKGAKLDQGEYERAAIDAVDNKKNTPLHYAAASGMKACVELLVKHGGDLFAENENKDTPCDCAEKQHHKDLALNLESQMVFSRDPEAEEIEAEYAALDKREPYEGLRPQDLRRLKDMLIVETADMLQAPLFTAEALLRAHDWDREKLLEAWMSNPENCCQRSGVQMPTPPPSGYNAWDTLPSPRTPRTTRSSVTSPDEISLSPGDLDTSLCDICMCSISVFEDPVDMPCGHDFCRGCWESFLNLKIQEGEAHNIFCPAYDCFQLVPVDIIESVVSKEMDKRYLQFDIKAFVENNPAIKWCPTPGCDRAVRLTKQGSNTSGSDTLSFPLLRAPAVDCGKGHLFCWECLGEAHEPCDCQTWKNWLQKITEMKPEELVGVSEAYEDAANCLWLLTNSKPCANCKSPIQKNEGCNHMQCAKCKYDFCWICLEEWKKHSSSTGGYYRCTRYEVIQHVEEQSKEMTVEAEKKHKRFQELDRFMHYYTRFKNHEHSYQLEQRLLKTAKEKMEQLSRALKETEGGCPDTTFIEDAVHVLLKTRRILKCSYPYGFFLEPKSTKKEIFELMQTDLEMVTEDLAQKVNRPYLRTPRHKIIKAACLVQQKRQEFLASVARGVAPADSPEAPRRSFAGGTWDWEYLGFASPEEYAEFQYRRRHRQRRRGDVHSLLSNPPDPDEPSESTLDIPEGGSSSRRPGTSVVSSASMSVLHSSSLRDYTPASRSENQDSLQALSSLDEDDPNILLAIQLSLQESGLALDEETRDFLSNEASLGAIGTSLPSRLDSVPRNTDSPRAALSSSELLELGDSLMRLGAENDPFSTDTLSSHPLSEARSDFCPSSSDPDSAGQDPNINDNLLGNIMAWFHDMNPQSIALIPPATTEISADSQLPCIKDGSEGVKDVELVLPEDSMFEDASVSEGRGTQIEENPLEENILAGEAASQAGDSGNEAANRGDGSDVSSQTPQTSSDWLEQVHLV [ANKIB1] | 0.00548 | -0.221 |
| MAESGGSSGGAGGGGAFGAGPGPERPNSTADKNGALKCTFSAPSHSTSLLQGLATLRAQGQLLDVVLTINREAFPAHKVVLAACSDYFRAMFTGGMREASQDVIELKGVSARGLRHIIDFAYSAEVTLDLDCVQDVLGAAVFLQMLPVVELCEEFLKAAMSVETCLNIGQMATTFSLASLRESVDAFTFRHFLQIAEEEDFLRLPLERLVFFLQSNRLQSCAEIDLFRAAVRWLQHDPARRPRASHVLCHIRFPLMQSSELVDSVQTLDIMVEDVLCRQYLLEAFNYQVLPFRQHEMQSPRTAVRSDVPSLVTFGGTPYTDSDRSVSSKVYQLPEPGARHFRELTEMEVGCSHTCVAVLDNFVYVAGGQHLQYRSGEGAVDACYRYDPHLNRWLRLQAMQESRIQFQLNVLCGMVYATGGRNRAGSLASVERYCPRRNEWGYACSLKRRTWGHAGAASGGRLYISGGYGISVEDKKALHCYDPVADQWEFKAPMSEPRVLHAMVGAGGRIYALGGRMDHVDRCFDVLAVEYYVPETDQWTSVSPMRAGQSEAGCCLLERKIYIVGGYNWRLNNVTGIVQVYNTDTDEWERDLHFPESFAGIACAPVLLPRAGTRR [KLHL26] | -0.0553 | -0.0565 |
| MGFWCRMSENQEQEEVITVRVQDPRVQNEGSWNSYVDYKIFLHTNSKAFTAKTSCVRRRYREFVWLRKQLQRNAGLVPVPELPGKSTFFGTSDEFIEKRRQGLQHFLEKVLQSVVLLSDSQLHLFLQSQLSVPEIEACVQGRSTMTVSDAILRYAMSNCGWAQEERQSSSHLAKGDQPKSCCFLPRSGRRSSPSPPPSEEKDHLEVWAPVVDSEVPSLESPTLPPLSSPLCCDFGRPKEGTSTLQSVRRAVGGDHAVPLDPGQLETVLEK [SNX11] | 0.38 | -0.17 |
| MGAAGSSALARFVLLAQSRPGWLGVAALGLTAVALGAVAWRRAWPTRRRRLLQQVGTVAQLWIYPVKSCKGVPVSEAECTAMGLRSGNLRDRFWLVINQEGNMVTARQEPRLVLISLTCDGDTLTLSAAYTKDLLLPIKTPTTNAVHKCRVHGLEIEGRDCGEATAQWITSFLKSQPYRLVHFEPHMRPRRPHQIADLFRPKDQIAYSDTSPFLILSEASLADLNSRLEKKVKATNFRPNIVISGCDVYAEDSWDELLIGDVELKRVMACSRCILTTVDPDTGVMSRKEPLETLKSYRQCDPSERKLYGKSPLFGQYFVLENPGTIKVGDPVYLLGQ [MARC1] | 0.00278 | -0.0926 |
